Laboratory results: publication PMC10461807 (Frontiers in Immunology, 2023)
Where a chain is given by its changes, count along the chain named. Values belong to the binder of their own block, whether it stands above or below them.

Assays:
recombinant huCD30 (R&D) = biological target: T1, recombinant huCD30 (R&D) (Homo sapiens, UniProt P28908); assay: SPR; BIAcore 3000, 25°C; recombinant huCD30 amine-coupled on a CM5 chip; mAbs as analyte in serial 1:2 dilutions from 20 nM; 10 mM Hepes pH 7.4, 150 mM NaCl, 0.005% P20, 0.1% BSA; 1:1 Langmuir fit; conditions: both partners purified
T1 construct: recombinant human CD30 from R&D; also called rhCD30; huCD30 protein; source: bought: R&D

Recombinant huCD30 = biological target: T2, Recombinant huCD30 (Homo sapiens, UniProt P28908); assay: SPR; mAbs (5 ng/ul) immobilized on a Protein G sensor chip at about 200 RU; rhCD30 as analyte (0-2500 nM for the 8D10 and 10C2 flow cells), 2 min at 40 ul/min, 3 min dissociation; 25°C; 10 mM Hepes pH 7.4, 150 mM NaCl, 0.005% P20; BIAcore 3000; 1:1 Langmuir fit; conditions: both partners purified
T2 construct: human CD30 (TNFRSF8), recombinant protein from R&D; also called rhCD30; huCD30 protein; source: bought: R&D
T2 sequence (P28908 19-385): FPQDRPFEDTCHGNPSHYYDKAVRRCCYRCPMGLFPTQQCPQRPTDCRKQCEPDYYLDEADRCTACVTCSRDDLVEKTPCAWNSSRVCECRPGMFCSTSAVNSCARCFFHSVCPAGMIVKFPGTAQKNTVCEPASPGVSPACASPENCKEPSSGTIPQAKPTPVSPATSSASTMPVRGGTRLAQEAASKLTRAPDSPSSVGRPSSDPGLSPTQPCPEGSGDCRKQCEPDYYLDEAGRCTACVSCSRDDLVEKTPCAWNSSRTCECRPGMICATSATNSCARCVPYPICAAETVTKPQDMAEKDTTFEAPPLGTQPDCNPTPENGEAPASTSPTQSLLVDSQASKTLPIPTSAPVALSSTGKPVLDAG

T1 sequence (P28908 19-385): as above

B1: anti-CD30 mAb 8D10 (antibody, V domains shown)
VH: QVQLQESGTELVKPGASVKLSCKASGYTFTSYWMHWMKQRPGQGLEWIGNINPSNGGTNYNEKFKNKATLTVDKSSSTAYMQLSSLTSEDSAVYYCARRDYYYGSSYGFDVWGTGTTVTVSS
VL: DIVMTQSPASQSASLGESVTITCLASQTIGTWLAWYQQKPGKSPQFLIYAATSLADGVPSRFSGSGSGTKFSFKISSLQAEDFVSYYCQQLYSTPFTFGGGTKLEIK
notes: also called clone 8D10; source: mouse hybridoma (custom generated by Genscript), serum-free supernatant, purified (rProtein A GraviTrap)
- Ka (recombinant huCD30 (R&D)): 1.69e+10 M⁻¹
- Kd (recombinant huCD30 (R&D)): 0.0592 nM
- koff (recombinant huCD30 (R&D)): 6e-06 s⁻¹
- kon (recombinant huCD30 (R&D)): 101000 M⁻¹ s⁻¹

B2: anti-CD30 mAb 8D10 (antibody, V domains shown)
VH: B1 VH
VL: B1 VL
notes: IgG2a constant part; kappa light chain; source: mouse hybridoma supernatant (serum-free medium), purified on rProtein A GraviTrap column
- Ka (Recombinant huCD30): 878000 M⁻¹
- Kd (Recombinant huCD30): 1140 nM
- koff (Recombinant huCD30): 0.00523 s⁻¹
- kon (Recombinant huCD30): 4530 M⁻¹ s⁻¹

B5: anti-CD30 mAb 13H1 (antibody, V domains shown)
VH: QVQLQQSGTELVKPGASVKLSCKASGHTFTSYWMHWVKQRPGQGLEWIGNINPSNGGTNYNEKFKSKATLTVDKSSSTAYMQLSSLTSEDSAVYYCARRGYYGSSSYWSFDVWGTGTTVTVSS
VL: DIVMTQTPKSMSMSVGERVTLSCKASENVGTYVSWYQQKPEQSPKVLIYGASNRFTGVPDRFTGSGSATDFTLTISSVQTEDLADYHCGQSYSYPLTFGAGTKLELK
notes: also called clone 13H1; source: mouse hybridoma (custom generated by Genscript), serum-free supernatant, purified (rProtein A GraviTrap)
- Ka (recombinant huCD30 (R&D)): 6.7e+09 M⁻¹
- Kd (recombinant huCD30 (R&D)): 0.149 nM
- koff (recombinant huCD30 (R&D)): 0.000106 s⁻¹
- kon (recombinant huCD30 (R&D)): 708000 M⁻¹ s⁻¹

B7: anti-CD30 mAb 10C2 (antibody, V domains shown)
VH: QVQLEQSGPVLVKPGASVKMSCKASGYTFTDYYMNWVKQSHGKSLEWIGVINPYNGGTSYNQKFKGKATLTVDKSSSTACMELNCLTSEDSAVYYCTLGAYWGQGTSVTVSS
VL: not shown
notes: as for B2
- Ka (Recombinant huCD30): 579000 M⁻¹
- Kd (Recombinant huCD30): 1760 nM
- koff (Recombinant huCD30): 0.0101 s⁻¹
- kon (Recombinant huCD30): 5880 M⁻¹ s⁻¹

More lines, in order of falling Kd (recombinant huCD30 (R&D)), values ahead:

- Ka (recombinant huCD30 (R&D)): 1.02e+09 M⁻¹
- Kd (recombinant huCD30 (R&D)): 0.978 nM
- koff (recombinant huCD30 (R&D)): 0.000493 s⁻¹
- kon (recombinant huCD30 (R&D)): 504000 M⁻¹ s⁻¹
B4: anti-CD30 mAb 15B8 (antibody, V domains shown)
VH: QVQLEQSGTELVKPGASVKLSCKASGYTFTSYWMHWVKQRPGQGLEWIGNINPSNGGTNYNEKFKSKATLTVDKSSSTAYMQLSSLTSEDSAIYYCARRNNYYASSPFAYWGQGTLVSVSA
VL: DIVMTQTPASLSASVGETVTITCRASGNIHNYLAWYQQKQGKSPQLLVYNAKTLADGVPSRFSGSGSGTQYSLKINSLQPEDFGSYYCQHFWSTPFTFGSGTKLEIK
notes: also called clone 15B8; source: mouse hybridoma (custom generated by Genscript), serum-free supernatant, purified (rProtein A GraviTrap)

- Ka (recombinant huCD30 (R&D)): 1.65e+09 M⁻¹
- Kd (recombinant huCD30 (R&D)): 0.607 nM
- koff (recombinant huCD30 (R&D)): 0.000186 s⁻¹
- kon (recombinant huCD30 (R&D)): 307000 M⁻¹ s⁻¹
B6: anti-CD30 mAb 10C2 (antibody, V domains shown)
VH: B7 VH
VL: not shown
notes: also called clone 10C2; source: mouse hybridoma (custom generated by Genscript), serum-free supernatant, purified (rProtein A GraviTrap)

- Ka (recombinant huCD30 (R&D)): 5.02e+09 M⁻¹
- Kd (recombinant huCD30 (R&D)): 0.199 nM
- koff (recombinant huCD30 (R&D)): 1.22e-05 s⁻¹
- kon (recombinant huCD30 (R&D)): 61300 M⁻¹ s⁻¹
B3: anti-CD30 mAb 12B1 (antibody, V domains shown)
VH: EVKLEESGTELVKPGASVKLSCKASGYTFTSYWMHWVKQRPGQGLEWIGNINPTNGGTNYNEKFKSKATLTVDKSSRTAYMQLSSLTSGDSAVYYCARRDFITTSGFAYWGQGTLVTVSA
VL: B4 VL with P8T, A13T, I29L, N31S, A34T, N76D, S93T
notes: also called clone 12B1; source: mouse hybridoma (custom generated by Genscript), serum-free supernatant, purified (rProtein A GraviTrap)
